Legend:
[1] = substrate: C[C@@H](O)[C@H]1C(=O)N2C(C(=O)O)=C(S[C@@H]3CN[C@H](CNS(N)(=O)=O)C3)[C@H](C)[C@H]12; experiment: (§1) Kcat/Km ratio of Escherichia coli TEM-1
[2] = substrate: C[C@@H](O)[C@H]1C(=O)N2C(C(=O)O)=C(S[C@@H]3CN[C@H](C(=O)N(C)C)C3)[C@H](C)[C@H]12; experiment: as §1
[3] = substrate: C[C@@H](O)[C@H]1C(=O)N2C(C(=O)O)=C(S[C@@H]3CN[C@H](CNS(N)(=O)=O)C3)[C@H](C)[C@H]12; experiment: (§2) Activity of Escherichia coli TEM-1
[4] = substrate: C[C@@H](O)[C@H]1C(=O)N2C(C(=O)O)=C(S[C@@H]3CN[C@H](C(=O)N(C)C)C3)[C@H](C)[C@H]12; experiment: as §2
[5] = substrate: O=C(Cc1cccs1)N[C@@H]1C(=O)N2C(C(=O)[O-])=C(C[n+]3ccccc3)CS[C@H]12; experiment: (§3) Activity of Klebsiella pneumoniae SHV-1
[6] = substrate: C[C@@H](O)[C@H]1C(=O)N2C(C(=O)O)=C(S[C@@H]3CN[C@H](CNS(N)(=O)=O)C3)[C@H](C)[C@H]12; experiment: as §3
[7] = substrate: CC1(C)S[C@@H]2[C@H](NC(=O)Cc3ccccc3)C(=O)N2[C@H]1C(=O)O; experiment: as §3
[8] = substrate: C[C@@H](O)[C@H]1C(=O)N2C(C(=O)O)=C(S[C@@H]3CN[C@H](C(=O)N(C)C)C3)[C@H](C)[C@H]12; experiment: as §3
[9] = substrate: C[C@@H](O)[C@H]1C(=O)N2C(C(=O)O)=C(SCCNC=N)C[C@H]12; experiment: as §3
[10] = substrate: O=C(Cc1cccs1)N[C@@H]1C(=O)N2C(C(=O)[O-])=C(C[n+]3ccccc3)CS[C@H]12; experiment: (§4) Kcat/Km ratio of Klebsiella pneumoniae SHV-1
[11] = substrate: C[C@@H](O)[C@H]1C(=O)N2C(C(=O)O)=C(S[C@@H]3CN[C@H](CNS(N)(=O)=O)C3)[C@H](C)[C@H]12; experiment: as §4
[12] = substrate: CC1(C)S[C@@H]2[C@H](NC(=O)Cc3ccccc3)C(=O)N2[C@H]1C(=O)O; experiment: as §4
[13] = substrate: C[C@@H](O)[C@H]1C(=O)N2C(C(=O)O)=C(S[C@@H]3CN[C@H](C(=O)N(C)C)C3)[C@H](C)[C@H]12; experiment: as §4
[14] = substrate: C[C@@H](O)[C@H]1C(=O)N2C(C(=O)O)=C(SCCNC=N)C[C@H]12; experiment: as §4
[15] = substrate: C[C@@H](O)[C@H]1C(=O)N2C(C(=O)O)=C(S[C@@H]3CN[C@H](CNS(N)(=O)=O)C3)[C@H](C)[C@H]12; experiment: (§5) Activity of Escherichia coli CTX-M-15
[16] = substrate: C[C@@H](O)[C@H]1C(=O)N2C(C(=O)O)=C(S[C@@H]3CN[C@H](C(=O)N(C)C)C3)[C@H](C)[C@H]12; experiment: as §5
[17] = substrate: C[C@@H](O)[C@H]1C(=O)N2C(C(=O)O)=C(SCCNC=N)C[C@H]12; experiment: as §5
[18] = substrate: C[C@@H](O)[C@H]1C(=O)N2C(C(=O)O)=C(S[C@@H]3CN[C@H](CNS(N)(=O)=O)C3)[C@H](C)[C@H]12; details: Escherichia coli
[19] = substrate: C[C@@H](O)[C@H]1C(=O)N2C(C(=O)O)=C(S[C@@H]3CN[C@H](C(=O)N(C)C)C3)[C@H](C)[C@H]12; details: Escherichia coli
[20] = substrate: C[C@@H](O)[C@H]1C(=O)N2C(C(=O)O)=C(SCCNC=N)C[C@H]12; details: Escherichia coli
[21] = substrate: C[C@@H](O)[C@H]1C(=O)N2C(C(=O)O)=C(S[C@@H]3CN[C@H](CNS(N)(=O)=O)C3)[C@H](C)[C@H]12; experiment: (§6) Kcat/Km ratio of Enterobacter cloacae AmpC
[22] = substrate: C[C@@H](O)[C@H]1C(=O)N2C(C(=O)O)=C(S[C@@H]3CN[C@H](C(=O)N(C)C)C3)[C@H](C)[C@H]12; experiment: as §6
[23] = substrate: C[C@@H](O)[C@H]1C(=O)N2C(C(=O)O)=C(SCCNC=N)C[C@H]12; experiment: as §6
[24] = substrate: C[C@@H](O)[C@H]1C(=O)N2C(C(=O)O)=C(S[C@@H]3CN[C@H](CNS(N)(=O)=O)C3)[C@H](C)[C@H]12; experiment: (§7) Activity of Enterobacter cloacae AmpC
[25] = substrate: C[C@@H](O)[C@H]1C(=O)N2C(C(=O)O)=C(S[C@@H]3CN[C@H](C(=O)N(C)C)C3)[C@H](C)[C@H]12; experiment: as §7
[26] = substrate: C[C@@H](O)[C@H]1C(=O)N2C(C(=O)O)=C(SCCNC=N)C[C@H]12; experiment: as §7

B1: Beta-lactamase TEM (Escherichia coli), P62593 (protein)
chain: MSIQHFRVALIPFFAAFCLPVFAHPETLVKVKDAEDQLGARVGYIELDLNSGKILESFRPEERFPMMSTFKVLLCGAVLSRVDAGQEQLGRRIHYSQNDLVEYSPVTEKHLTDGMTVRELCSAAITMSDNTAANLLLTTIGGPKELTAFLHNMGDHVTRLDRWEPELNEAIPNDERDTTMPAAMATTLRKLLTGELLTLASRQQLIDWMEADKVAGPLLRSALPAGWFIADKSGAGERGSRGIIAALGPDGKPSRIVVIYTTGSQATMDERNRQIAEIGASLIKHW
[1]
  kcat/Km: 39 M⁻¹ s⁻¹
[2]
  kcat/Km: 15 M⁻¹ s⁻¹
[3]
  Km: 5.4 µM
  kcat: 0.00021 s⁻¹
[4]
  Km: 15 µM
  kcat: 0.00023 s⁻¹

B2: Beta-lactamase SHV-1 (Klebsiella pneumoniae), P0AD64 (protein)
chain: MRYIRLCIISLLATLPLAVHASPQPLEQIKLSESQLSGRVGMIEMDLASGRTLTAWRADERFPMMSTFKVVLCGAVLARVDAGDEQLERKIHYRQQDLVDYSPVSEKHLADGMTVGELCAAAITMSDNSAANLLLATVGGPAGLTAFLRQIGDNVTRLDRWETELNEALPGDARDTTTPASMAATLRKLLTSQRLSARSQRQLLQWMVDDRVAGPLIRSVLPAGWFIADKTGAGERGARGIVALLGPNNKAERIVVIYLRDTPASMAERNQQIAGIGAALIEHWQR
[5]
  kcat: 410 s⁻¹
[6]
  Km: 4.3 µM
  kcat: 0.003 s⁻¹
[7]
  kcat: 1100 s⁻¹
[8]
  Km: 4.2 µM
  kcat: 0.0017 s⁻¹
[9]
  Km: 23 µM
  kcat: 0.054 s⁻¹
[10]
  kcat/Km: 2.6e+06 M⁻¹ s⁻¹
[11]
  kcat/Km: 700 M⁻¹ s⁻¹
[12]
  kcat/Km: 6.9e+07 M⁻¹ s⁻¹
[13]
  kcat/Km: 400 M⁻¹ s⁻¹
[14]
  kcat/Km: 2400 M⁻¹ s⁻¹

B3: Beta-lactamase CTX-M (Escherichia coli), Q9EXV5 (protein)
chain: MVKKSLRQFTLMATATVTLLLGSVPLYAQTADVQQKLAELERQSGGRLGVALINTADNSQILYRADERFAMCSTSKVMAAAAVLKKSESEPNLLNQRVEIKKSDLVNYNPIAEKHVNGTMSLAELSAAALQYSDNVAMNKLIAHVGGPASVTAFARQLGDETFRLDRTEPTLNTAIPGDPRDTTSPRAMAQTLRNLTLGKALGDSQRAQLVTWMKGNTTGAASIQAGLPASWVVGDKTGSGGYGTTNDIAVIWPKDRAPLILVTYFTQPQPKAESRRDVLASAAKIVTDGL
[15]
  Km: 7.1 µM
  kcat: 0.0018 s⁻¹
[16]
  Km: 11 µM
  kcat: 0.0042 s⁻¹
[17]
  Km: 120 µM
  kcat: 0.17 s⁻¹
[18]
  kcat/Km: 250 M⁻¹ s⁻¹
[19]
  kcat/Km: 380 M⁻¹ s⁻¹
[20]
  kcat/Km: 1400 M⁻¹ s⁻¹

B4: Beta-lactamase (Enterobacter cloacae), P05364 (protein)
chain: MMRKSLCCALLLGISCSALATPVSEKQLAEVVANTITPLMKAQSVPGMAVAVIYQGKPHYYTFGKADIAANKPVTPQTLFELGSISKTFTGVLGGDAIARGEISLDDAVTRYWPQLTGKQWQGIRMLDLATYTAGGLPLQVPDEVTDNASLLRFYQNWQPQWKPGTTRLYANASIGLFGALAVKPSGMPYEQAMTTRVLKPLKLDHTWINVPKAEEAHYAWGYRDGKAVRVSPGMLDAQAYGVKTNVQDMANWVMANMAPENVADASLKQGIALAQSRYWRIGSMYQGLGWEMLNWPVEANTVVEGSDSKVALAPLPVAEVNPPAPPVKASWVHKTGSTGGFGSYVAFIPEKQIGIVMLANTSYPNPARVEAAYHILEALQ
[21]
  kcat/Km: 45 M⁻¹ s⁻¹
[22]
  kcat/Km: 32 M⁻¹ s⁻¹
[23]
  kcat/Km: 500 M⁻¹ s⁻¹
[24]
  Km: 9.6 µM
  kcat: 0.00043 s⁻¹
[25]
  Km: 9.8 µM
  kcat: 0.00031 s⁻¹
[26]
  Km: 24 µM
  kcat: 0.012 s⁻¹

From ChEMBL document CHEMBL1212772
